B1: MLL5 (parent)
chain: DCMGIDRQHIPDTYLCERCQPRNL
B2: ZBTB22 (parent)
chain: AVLAASSPYFHDQVLLKGMTSISL

Variants of: B1
Assay: protein stability index of a GFP-peptide fusion (GPS, HEK-293T) (PSI 1-6); higher = more stable
Conditions: c terminus: a fixed tail appended
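Note: lentivirally expressed fusions sorted by FACS into six bins by GFP to DsRed ratio, PSI derived from sequencing read proportions per bin multiplied by bin number.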

Variant	protein stability index
DCMGIDRQHIPDTYLCERCQPRNT	3.14
DCMGIDRQHIPDTYLCERCQPRNQ	3.51
DCMGIDRQHIPDTYLCERCQPRNP	2.64
DCMGIDRQHIPDTYLCERCQPRNH	2.91
DCMGIDRQHIPDTYLCERCQPRNF	2.71
DCMGIDRQHIPDTYLCERCQPRNV	2.84
DCMGIDRQHIPDTYLCERCQPRNG	3.73
DCMGIDRQHIPDTYLCERCQPRNI	2.36
DCMGIDRQHIPDTYLCERCQPRNM	2.69
DCMGIDRQHIPDTYLCERCQPRNW	2.77
DCMGIDRQHIPDTYLCERCQPRNN	3.26
DCMGIDRQHIPDTYLCERCQPRNK	4.2
DCMGIDRQHIPDTYLCERCQPRNY	2.86
DCMGIDRQHIPDTYLCERCQPRNS	3.84
DCMGIDRQHIPDTYLCERCQPRNR	2.62

Variants of: B2
Assay: as above
Conditions: c terminus: a fixed tail appended

Variant	protein stability index
AVLAASSPYFHDQVLLKKMTSISL	2.14
AVLAASSPYFHDQVLLKAMTSISL	3.06
AVLAASSPYFHDQVLLKVMTSISL	2.66
AVLAASSPYFHDQVLLKSMTSISL	3.59
AVLAASSPYFHDQVLLKIMTSISL	2.8
AVLAASSPYFHDQVLLKHMTSISL	1.84
AVLAASSPYFHDQVLLKEMTSISL	1.46
AVLAASSPYFHDQVLLKNMTSISL	2.37
AVLAASSPYFHDQVLLKGMTSICL	1.95
AVLAASSPYFHDQVLLKGMTSIML	1.86
AVLAASSPYFHDQVLLKGMTSILL	2.64
AVLAASSPYFHDQVLLKGMTSIWL	2.97
AVLAASSPYFHDQVLLKGMTSIGL	3.35
AVLAASSPYFHDQVLLKGMTSIDL	1.3
AVLAASSPYFHDQVLLKGMTSIEL	2.57
AVLAASSPYFHDQVLLKGMTSIFL	4.12
AVLAASSPYFHDQVLLKGMTSITL	1.22
AVLAASSPYFHDQVGLKGMTSISL	3.34
AVLAASSPYFHDQVMLKGMTSISL	1.94
AVLAASSPYFHDQVFLKGMTSISL	3.52
AVLAASSPYFHDQVNLKGMTSISL	2.76
AVLAASSPYFHDQVDLKGMTSISL	2.77
AVLAASSPYFHDQVILKGMTSISL	3.58
AVLAASSPYFHDQVKLKGMTSISL	2.3
AVLAASSPYFHDQVQLKGMTSISL	1.76
AVNAASSPYFHDQVLLKGMTSISL	2.38
AVQAASSPYFHDQVLLKGMTSISL	1.93

Variant	protein stability index
AVIAASSPYFHDQVLLKGMTSISL	3.32
AVRAASSPYFHDQVLLKGMTSISL	1.45
AVKAASSPYFHDQVLLKGMTSISL	1.64
AVPAASSPYFHDQVLLKGMTSISL	3.11
AVLASSSPYFHDQVLLKGMTSISL	2.6
AVLAYSSPYFHDQVLLKGMTSISL	2.44
AVLAKSSPYFHDQVLLKGMTSISL	3.55
AVLAFSSPYFHDQVLLKGMTSISL	2.98
AVLAQSSPYFHDQVLLKGMTSISL	3.23
AVLAESSPYFHDQVLLKGMTSISL	1.55
AVLAASSPYFHDQVLLKGKTSISL	1.37
AVLAASSPYFHDQVLLKGWTSISL	1.8
AVLAASSPYFHDQVLLKGPTSISL	3.42
AVLAASSPYFHDQVLLKGLTSISL	2.23
AVLAASSPYFHDQVLLKGGTSISL	1.04
AVLAASSPYFHDQVLLKGTTSISL	2.57
AVLAASSPYFSDQVLLKGMTSISL	2.71
AVLAASSPYFTDQVLLKGMTSISL	3.44
AVLAASSPYFIDQVLLKGMTSISL	1.58
AVLAASSPYFDDQVLLKGMTSISL	3.15
AVLAASEPYFHDQVLLKGMTSISL	2.33
AVLAASYPYFHDQVLLKGMTSISL	1.47
AVLAASIPYFHDQVLLKGMTSISL	4.5
AVLAASWPYFHDQVLLKGMTSISL	2
AVLAASVPYFHDQVLLKGMTSISL	2.11
AVLAASDPYFHDQVLLKGMTSISL	3.38
AVLAASHPYFHDQVLLKGMTSISL	2.8

Variant	protein stability index
AVLAASSPYFHQQVLLKGMTSISL	3.51
AVLAASSPYFHRQVLLKGMTSISL	3.23
AVLAASSPYFHLQVLLKGMTSISL	2.57
AVLAASSPYFHAQVLLKGMTSISL	2.68
AVLAASSPYFHPQVLLKGMTSISL	3.38
AVLAASSPYFHWQVLLKGMTSISL	2.12
AVLAASSPYFHKQVLLKGMTSISL	1.39
AVLAASSPYFHYQVLLKGMTSISL	3.7
AVLAASSPYFHDQVLLKGMTSGSL	2.4
AVLAASSPYFHDQVLLKGMTSTSL	2.75
AVLAASSPYFHDQVLLKGMTSSSL	1.29
AVLAASSPYFHDQVLLKGMTSESL	4.43
AVLAASSPYFHDQVLLKGMTSDSL	1.66
AVLAASSPYFHDQVLLKGMTSPSL	1.72
AVLAASSPYFHDQVLLKGMTSKSL	2.13
AVLAASSPYFHDQVLLKGMTSNSL	1.44
AVLAASSPYFHDQVLLKGMTSASL	3.31
AVLAASSPYFHDQVLLKGMTSQSL	1.09
AVLAASSPYFHDQVLLKGMTSYSL	3.76
ARLAASSPYFHDQVLLKGMTSISL	2.15
ATLAASSPYFHDQVLLKGMTSISL	1.45
ASLAASSPYFHDQVLLKGMTSISL	2.33
ANLAASSPYFHDQVLLKGMTSISL	1.63
AHLAASSPYFHDQVLLKGMTSISL	2.52
ACLAASSPYFHDQVLLKGMTSISL	1.04

From the supplement of paper PMC10567573
